T1: SHANK1, Q9Y566
T1 sequence (Q9Y566 658-767, limits assumed, looked up): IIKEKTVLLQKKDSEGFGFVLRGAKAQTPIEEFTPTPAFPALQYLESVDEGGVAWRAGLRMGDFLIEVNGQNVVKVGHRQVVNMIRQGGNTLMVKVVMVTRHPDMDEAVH

T2: DLG3_1, Q92796
T2 sequence (Q92796 125-227, limits assumed, looked up): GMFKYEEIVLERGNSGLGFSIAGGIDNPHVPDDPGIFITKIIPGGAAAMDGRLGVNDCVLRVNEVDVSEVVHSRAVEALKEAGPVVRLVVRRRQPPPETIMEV

T3: DVL3, Q92997
T3 sequence (Q92997 244-331, limits assumed, looked up): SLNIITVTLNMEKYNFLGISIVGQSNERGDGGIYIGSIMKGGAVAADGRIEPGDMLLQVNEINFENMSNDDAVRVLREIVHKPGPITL

T4: SNTB1, Q13884
T4 sequence (Q13884 107-205, limits assumed, looked up): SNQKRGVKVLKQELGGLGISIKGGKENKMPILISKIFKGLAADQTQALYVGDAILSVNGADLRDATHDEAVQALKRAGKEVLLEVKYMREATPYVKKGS

T5: SYNJ2BP, P57105
T5 sequence (P57105 8-110, limits assumed, looked up): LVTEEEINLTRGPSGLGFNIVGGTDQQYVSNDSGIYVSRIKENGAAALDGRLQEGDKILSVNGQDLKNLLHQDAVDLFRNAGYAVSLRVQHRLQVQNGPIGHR

T6: TJP3_3, O95049
T6 sequence (O95049 375-456, limits assumed, looked up): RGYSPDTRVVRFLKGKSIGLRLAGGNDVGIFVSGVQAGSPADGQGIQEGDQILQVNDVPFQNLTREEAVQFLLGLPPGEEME

T7: APBA2_1, Q99767
T7 sequence (Q99767 563-664, limits assumed, looked up): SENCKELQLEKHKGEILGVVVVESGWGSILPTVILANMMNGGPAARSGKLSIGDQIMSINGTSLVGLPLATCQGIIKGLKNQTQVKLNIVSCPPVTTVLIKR

T8: GRIP1_5, Q9Y3R0
T8 sequence (Q9Y3R0 568-668, limits assumed, looked up): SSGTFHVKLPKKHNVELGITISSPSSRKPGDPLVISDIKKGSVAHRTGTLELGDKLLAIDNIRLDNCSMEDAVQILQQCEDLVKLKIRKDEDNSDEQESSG

T9: FRMPD1, Q5SYB0
T9 sequence (Q5SYB0 52-145, limits assumed, looked up): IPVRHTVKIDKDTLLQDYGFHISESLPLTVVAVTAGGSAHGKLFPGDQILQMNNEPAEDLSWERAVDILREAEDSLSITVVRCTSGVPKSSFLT

T10: APBA3_1, O96018
T10 sequence (O96018 389-490, limits assumed, looked up): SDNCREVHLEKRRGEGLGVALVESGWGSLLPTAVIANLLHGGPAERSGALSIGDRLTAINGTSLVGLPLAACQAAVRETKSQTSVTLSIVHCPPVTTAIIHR

T11: ARHGAP21, Q5T5U3
T11 sequence (Q5T5U3 45-169, limits assumed, looked up): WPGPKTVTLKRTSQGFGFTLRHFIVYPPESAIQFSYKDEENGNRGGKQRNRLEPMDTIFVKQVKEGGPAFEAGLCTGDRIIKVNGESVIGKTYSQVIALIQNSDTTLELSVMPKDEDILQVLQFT

T12: PDZD7_3, Q9H5P4
T12 sequence (Q9H5P4 857-944, limits assumed, looked up): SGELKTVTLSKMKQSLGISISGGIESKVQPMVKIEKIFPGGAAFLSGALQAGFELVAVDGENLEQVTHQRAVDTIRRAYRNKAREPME

T13: DLG3_2, Q92796
T13 sequence (Q92796 221-321, limits assumed, looked up): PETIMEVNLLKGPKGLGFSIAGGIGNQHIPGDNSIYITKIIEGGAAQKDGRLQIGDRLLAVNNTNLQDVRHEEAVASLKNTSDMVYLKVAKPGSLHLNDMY


target: GRID2IP_2, A4D2P6; assay: holdup assay; design: key: below the threshold = too weak to quantify, mostly under pKd 3.1 to 4; conditions: plain residues with an end cap or a label only (N-terminal biotin on a linker: ado-ado)
Sequence (A4D2P6 272-370): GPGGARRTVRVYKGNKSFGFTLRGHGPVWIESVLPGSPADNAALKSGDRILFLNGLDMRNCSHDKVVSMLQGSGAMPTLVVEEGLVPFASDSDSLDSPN

| pKd | Binder |
| --- | --- |
| 4.63 | KIEDVEITLV [FCHSD2, O94868] |
| 4.12 | RDYTQSSSSL [GRM5, P41594] |

target: T1, SHANK1, Q9Y566; assay: holdup assay; design: key: below the threshold = too weak to quantify, mostly under pKd 3.1 to 4; conditions: plain residues with an end cap or a label only (N-terminal biotin on a linker: ado-ado)

| pKd | Binder |
| --- | --- |
| 4.1 | KIEDVEITLV [FCHSD2, O94868] |
| 4.7 | RDYTQSSSSL [GRM5, P41594] |

target: MAGI2_5, Q86UL8; assay: holdup assay; design: key: below the threshold = too weak to quantify, mostly under pKd 3.1 to 4; conditions: plain residues with an end cap or a label only (N-terminal biotin on a linker: ado-ado)
Sequence (Q86UL8 915-1017): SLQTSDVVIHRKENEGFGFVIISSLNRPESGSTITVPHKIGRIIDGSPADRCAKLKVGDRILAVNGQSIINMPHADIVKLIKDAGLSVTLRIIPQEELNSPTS

| pKd | Binder |
| --- | --- |
| 5.47 | KIEDVEITLV [FCHSD2, O94868] |
| below the threshold | RDYTQSSSSL [GRM5, P41594] |

target: HTRA1, Q92743; assay: holdup assay; design: key: below the threshold = too weak to quantify, mostly under pKd 3.1 to 4; conditions: plain residues with an end cap or a label only (N-terminal biotin on a linker: ado-ado)
Sequence (Q92743 360-477): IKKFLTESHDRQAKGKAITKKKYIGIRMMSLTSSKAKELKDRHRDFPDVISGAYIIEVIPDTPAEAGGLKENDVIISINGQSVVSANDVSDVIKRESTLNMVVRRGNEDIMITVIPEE

| pKd | Binder |
| --- | --- |
| 5.5 | KIEDVEITLV [FCHSD2, O94868] |
| below the threshold | RDYTQSSSSL [GRM5, P41594] |

target: T2, DLG3_1, Q92796; assay: holdup assay; design: key: below the threshold = too weak to quantify, mostly under pKd 3.1 to 4; conditions: plain residues with an end cap or a label only (N-terminal biotin on a linker: ado-ado)

| pKd | Binder |
| --- | --- |
| below the threshold | KIEDVEITLV [FCHSD2, O94868] |
| below the threshold | RDYTQSSSSL [GRM5, P41594] |

target: T3, DVL3, Q92997; assay: holdup assay; design: key: below the threshold = too weak to quantify, mostly under pKd 3.1 to 4; conditions: plain residues with an end cap or a label only (N-terminal biotin on a linker: ado-ado)

| pKd | Binder |
| --- | --- |
| below the threshold | KIEDVEITLV [FCHSD2, O94868] |
| below the threshold | RDYTQSSSSL [GRM5, P41594] |

target: T4, SNTB1, Q13884; assay: holdup assay; design: key: below the threshold = too weak to quantify, mostly under pKd 3.1 to 4; conditions: plain residues with an end cap or a label only (N-terminal biotin on a linker: ado-ado)

| pKd | Binder |
| --- | --- |
| 3.95 | KIEDVEITLV [FCHSD2, O94868] |
| below the threshold | RDYTQSSSSL [GRM5, P41594] |

target: T5, SYNJ2BP, P57105; assay: holdup assay; design: key: below the threshold = too weak to quantify, mostly under pKd 3.1 to 4; conditions: plain residues with an end cap or a label only (N-terminal biotin on a linker: ado-ado)

| pKd | Binder |
| --- | --- |
| 3.82 | KIEDVEITLV [FCHSD2, O94868] |
| 3.82 | RDYTQSSSSL [GRM5, P41594] |

target: MAST1, Q9Y2H9; assay: holdup assay; design: key: below the threshold = too weak to quantify, mostly under pKd 3.1 to 4; conditions: plain residues with an end cap or a label only (N-terminal biotin on a linker: ado-ado)
Sequence (Q9Y2H9 962-1065): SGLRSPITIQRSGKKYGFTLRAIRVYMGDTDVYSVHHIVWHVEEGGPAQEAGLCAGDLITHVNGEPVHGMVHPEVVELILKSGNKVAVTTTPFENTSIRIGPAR

| pKd | Binder |
| --- | --- |
| 4.16 | KIEDVEITLV [FCHSD2, O94868] |
| 4.67 | RDYTQSSSSL [GRM5, P41594] |

target: T6, TJP3_3, O95049; assay: holdup assay; design: key: below the threshold = too weak to quantify, mostly under pKd 3.1 to 4; conditions: plain residues with an end cap or a label only (N-terminal biotin on a linker: ado-ado)

| pKd | Binder |
| --- | --- |
| below the threshold | KIEDVEITLV [FCHSD2, O94868] |
| below the threshold | RDYTQSSSSL [GRM5, P41594] |

target: T7, APBA2_1, Q99767; assay: holdup assay; design: key: below the threshold = too weak to quantify, mostly under pKd 3.1 to 4; conditions: plain residues with an end cap or a label only (N-terminal biotin on a linker: ado-ado)

| pKd | Binder |
| --- | --- |
| below the threshold | KIEDVEITLV [FCHSD2, O94868] |
| below the threshold | RDYTQSSSSL [GRM5, P41594] |

target: GRIP2_4, Q9C0E4; assay: holdup assay; design: key: below the threshold = too weak to quantify, mostly under pKd 3.1 to 4; conditions: plain residues with an end cap or a label only (N-terminal biotin on a linker: ado-ado)
Sequence (Q9C0E4 446-548): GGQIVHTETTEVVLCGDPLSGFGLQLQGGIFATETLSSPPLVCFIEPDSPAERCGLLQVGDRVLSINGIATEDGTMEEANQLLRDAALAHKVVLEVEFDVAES

| pKd | Binder |
| --- | --- |
| below the threshold | KIEDVEITLV [FCHSD2, O94868] |
| below the threshold | RDYTQSSSSL [GRM5, P41594] |

target: PDLIM1, O00151; assay: holdup assay; design: key: below the threshold = too weak to quantify, mostly under pKd 3.1 to 4; conditions: plain residues with an end cap or a label only (N-terminal biotin on a linker: ado-ado)
Sequence (O00151 1-87): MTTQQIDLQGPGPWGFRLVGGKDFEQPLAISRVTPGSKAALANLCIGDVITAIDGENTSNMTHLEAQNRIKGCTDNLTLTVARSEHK

| pKd | Binder |
| --- | --- |
| below the threshold | KIEDVEITLV [FCHSD2, O94868] |
| below the threshold | RDYTQSSSSL [GRM5, P41594] |

target: T8, GRIP1_5, Q9Y3R0; assay: holdup assay; design: key: below the threshold = too weak to quantify, mostly under pKd 3.1 to 4; conditions: plain residues with an end cap or a label only (N-terminal biotin on a linker: ado-ado)

| pKd | Binder |
| --- | --- |
| below the threshold | KIEDVEITLV [FCHSD2, O94868] |
| below the threshold | RDYTQSSSSL [GRM5, P41594] |

target: T9, FRMPD1, Q5SYB0; assay: holdup assay; design: key: below the threshold = too weak to quantify, mostly under pKd 3.1 to 4; conditions: plain residues with an end cap or a label only (N-terminal biotin on a linker: ado-ado)

| pKd | Binder |
| --- | --- |
| below the threshold | KIEDVEITLV [FCHSD2, O94868] |
| below the threshold | RDYTQSSSSL [GRM5, P41594] |

target: T10, APBA3_1, O96018; assay: holdup assay; design: key: below the threshold = too weak to quantify, mostly under pKd 3.1 to 4; conditions: plain residues with an end cap or a label only (N-terminal biotin on a linker: ado-ado)

| pKd | Binder |
| --- | --- |
| below the threshold | KIEDVEITLV [FCHSD2, O94868] |
| below the threshold | RDYTQSSSSL [GRM5, P41594] |

target: T11, ARHGAP21, Q5T5U3; assay: holdup assay; design: key: below the threshold = too weak to quantify, mostly under pKd 3.1 to 4; conditions: plain residues with an end cap or a label only (N-terminal biotin on a linker: ado-ado)

| pKd | Binder |
| --- | --- |
| 4.01 | KIEDVEITLV [FCHSD2, O94868] |
| 4.17 | RDYTQSSSSL [GRM5, P41594] |

target: T12, PDZD7_3, Q9H5P4; assay: holdup assay; design: key: below the threshold = too weak to quantify, mostly under pKd 3.1 to 4; conditions: plain residues with an end cap or a label only (N-terminal biotin on a linker: ado-ado)

| pKd | Binder |
| --- | --- |
| 5.46 | KIEDVEITLV [FCHSD2, O94868] |
| below the threshold | RDYTQSSSSL [GRM5, P41594] |

target: T13, DLG3_2, Q92796; assay: holdup assay; design: key: below the threshold = too weak to quantify, mostly under pKd 3.1 to 4; conditions: plain residues with an end cap or a label only (N-terminal biotin on a linker: ado-ado)

| pKd | Binder |
| --- | --- |
| 3.53 | KIEDVEITLV [FCHSD2, O94868] |
| 3.96 | RDYTQSSSSL [GRM5, P41594] |

target: SCRIB_2, Q14160; assay: holdup assay; design: key: below the threshold = too weak to quantify, mostly under pKd 3.1 to 4; conditions: plain residues with an end cap or a label only (N-terminal biotin on a linker: ado-ado)
Sequence (Q14160 857-960): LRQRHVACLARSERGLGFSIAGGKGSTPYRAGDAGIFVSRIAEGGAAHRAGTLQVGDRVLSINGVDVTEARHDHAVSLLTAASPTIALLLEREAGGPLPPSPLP

| pKd | Binder |
| --- | --- |
| below the threshold | KIEDVEITLV [FCHSD2, O94868] |
| below the threshold | RDYTQSSSSL [GRM5, P41594] |

target: MAGI2_6, Q86UL8; assay: holdup assay; design: key: below the threshold = too weak to quantify, mostly under pKd 3.1 to 4; conditions: plain residues with an end cap or a label only (N-terminal biotin on a linker: ado-ado)
Sequence (Q86UL8 1141-1229): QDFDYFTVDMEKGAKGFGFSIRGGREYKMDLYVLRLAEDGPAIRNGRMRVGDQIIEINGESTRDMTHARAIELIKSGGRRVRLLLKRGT

| pKd | Binder |
| --- | --- |
| 4.24 | KIEDVEITLV [FCHSD2, O94868] |
| 3.49 | RDYTQSSSSL [GRM5, P41594] |

target: Inadl_6, Q8NI35; assay: holdup assay; design: key: below the threshold = too weak to quantify, mostly under pKd 3.1 to 4; conditions: plain residues with an end cap or a label only (N-terminal biotin on a linker: ado-ado)
Sequence (Q8NI35 1058-1167): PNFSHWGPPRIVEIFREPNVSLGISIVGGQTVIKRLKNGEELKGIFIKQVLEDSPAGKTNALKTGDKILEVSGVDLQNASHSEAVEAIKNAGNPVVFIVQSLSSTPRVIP

| pKd | Binder |
| --- | --- |
| 4.23 | KIEDVEITLV [FCHSD2, O94868] |
| below the threshold | RDYTQSSSSL [GRM5, P41594] |

target: Inadl_4, Q8NI35; assay: holdup assay; design: key: below the threshold = too weak to quantify, mostly under pKd 3.1 to 4; conditions: plain residues with an end cap or a label only (N-terminal biotin on a linker: ado-ado)
Sequence (Q8NI35 547-651): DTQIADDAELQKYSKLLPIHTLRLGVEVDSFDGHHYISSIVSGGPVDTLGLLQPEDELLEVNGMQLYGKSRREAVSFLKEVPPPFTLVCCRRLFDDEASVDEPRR

| pKd | Binder |
| --- | --- |
| below the threshold | KIEDVEITLV [FCHSD2, O94868] |
| below the threshold | RDYTQSSSSL [GRM5, P41594] |

target: DLG1_2, Q12959; assay: holdup assay; design: key: below the threshold = too weak to quantify, mostly under pKd 3.1 to 4; conditions: plain residues with an end cap or a label only (N-terminal biotin on a linker: ado-ado)
Sequence (Q12959 314-412): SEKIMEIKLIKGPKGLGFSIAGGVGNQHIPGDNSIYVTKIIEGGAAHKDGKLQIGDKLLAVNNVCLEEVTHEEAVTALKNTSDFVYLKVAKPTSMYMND

| pKd | Binder |
| --- | --- |
| 4.3 | KIEDVEITLV [FCHSD2, O94868] |
| below the threshold | RDYTQSSSSL [GRM5, P41594] |

— article PMC9482650, “Quantitative fragmentomics allow affinity mapping of interactomes” (Nature Communications, 2022)
